In general, stoichiometry N refers to the number of molecules, sites or subunits per partner or assembly.

Among the data in article PMC7734621 are stoichiometry N values, retold here.

For the assay, the target named is Minerva virus protease (MVpro), NS6 3C-like protease of a GII.4 norovirus (Minerva virus (norovirus GII.4, 2006b variant)). Kind of assay: SEC.

As for “Minerva virus protease (MVpro), NS6 3C-like protease of a GII.4 norovirus (enzyme)”, the stoichiometry N is 2.
